Source: publication PMC10397247
Like-named read-outs stand apart in the source and are kept apart here. Values belong to the binder of their own block, whether it stands above or below them.

Key:
[1] = target: T1, P6A-bP; experiment: two-hybrid library CCNG1;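 note: natural log of median RNA to DNA barcode read ratio; higher means stronger binding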
T1 chain: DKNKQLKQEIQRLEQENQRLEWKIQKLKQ

[2] = target: T2, P8A-bP; experiment: two-hybrid library CCNG1;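 note: natural log of median RNA to DNA barcode read ratio; higher means stronger binding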
T2 chain: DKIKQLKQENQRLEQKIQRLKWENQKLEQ

[3] = target: T3, P9A-bP; experiment: two-hybrid library CCNG1;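 note: natural log of median RNA to DNA barcode read ratio; higher means stronger binding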
T3 chain: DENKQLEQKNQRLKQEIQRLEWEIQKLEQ

[4] = target: T4, P7A-bP; experiment: two-hybrid library CCNG1;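 note: natural log of median RNA to DNA barcode read ratio; higher means stronger binding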
T4 chain: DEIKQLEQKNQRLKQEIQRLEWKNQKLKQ

[5] = target: T5, 4H3102-AA; experiment: two-hybrid library CCmax; details: mean of both orientations;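 note: natural log of median RNA to DNA barcode read ratio; higher means stronger binding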
T5 chain: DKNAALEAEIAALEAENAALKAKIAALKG

[6] = target: T6, 4H3666-AA; experiment: two-hybrid library CCmax; details: mean of both orientations;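 note: natural log of median RNA to DNA barcode read ratio; higher means stronger binding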
T6 chain: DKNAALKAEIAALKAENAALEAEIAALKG

[7] = target: T7, 4H189-AA; experiment: two-hybrid library CCmax; details: mean of both orientations
T7 chain: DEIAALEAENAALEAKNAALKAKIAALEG

[8] = target: T8, 4H3121-AA; experiment: two-hybrid library CCmax; details: mean of both orientations
T8 chain: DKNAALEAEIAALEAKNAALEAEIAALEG

[9] = target: T9, 4H3939-AA; experiment: two-hybrid library CCmax; details: mean of both orientations
T9 chain: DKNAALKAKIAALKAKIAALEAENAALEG

[10] = target: T10, 4H3446-AA; experiment: two-hybrid library CCmax; details: mean of both orientations
T10 chain: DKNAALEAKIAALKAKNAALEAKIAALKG

[11] = target: T11, 4H428-AA; experiment: two-hybrid library CCmax; details: mean of both orientations
T11 chain: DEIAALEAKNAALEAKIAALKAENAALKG

[12] = target: T12, 4H3709-AA; experiment: two-hybrid library CCmax; details: mean of both orientations
T12 chain: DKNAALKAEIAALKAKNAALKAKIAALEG

[13] = target: T13, 4H391-AA; experiment: two-hybrid library CCmax; details: mean of both orientations
T13 chain: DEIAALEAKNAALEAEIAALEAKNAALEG

[14] = target: T14, 4H1854-AA; experiment: two-hybrid library CCmax; details: mean of both orientations
T14 chain: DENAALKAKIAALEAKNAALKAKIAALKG

[15] = target: T15, 4H2948-AA; experiment: two-hybrid library CCmax; details: mean of both orientations
T15 chain: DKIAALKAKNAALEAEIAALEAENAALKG

[16] = target: T16, 4H2991-AA; experiment: two-hybrid library CCmax; details: mean of both orientations
T16 chain: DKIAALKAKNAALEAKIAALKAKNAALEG

[17] = target: T17, 4H2248-AA; experiment: two-hybrid library CCmax; details: mean of both orientations
T17 chain: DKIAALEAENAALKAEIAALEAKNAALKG

[18] = target: T18, 4H3591-AA; experiment: two-hybrid library CCmax; details: mean of both orientations
T18 chain: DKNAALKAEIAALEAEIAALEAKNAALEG

[19] = target: T19, 4H656-AA; experiment: two-hybrid library CCmax; details: mean of both orientations
T19 chain: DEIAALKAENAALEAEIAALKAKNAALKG

[20] = target: T20, 4H1809-AA; experiment: two-hybrid library CCmax
T20 chain: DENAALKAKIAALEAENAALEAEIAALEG

[21] = target: T21, 4H478-AA; experiment: two-hybrid library CCmax; details: mean of both orientations
T21 chain: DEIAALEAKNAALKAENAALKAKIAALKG

[22] = target: T22, 4H675-AA; experiment: two-hybrid library CCmax; details: mean of both orientations
T22 chain: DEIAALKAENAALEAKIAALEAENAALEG

[23] = target: T23, 4H2713-AA; experiment: two-hybrid library CCmax; details: mean of both orientations
T23 chain: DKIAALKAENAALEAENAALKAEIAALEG

[24] = target: T24, 4H3417-AA; experiment: two-hybrid library CCmax; details: mean of both orientations
T24 chain: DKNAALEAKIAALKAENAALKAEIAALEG

[25] = target: T25, 4H2742-AA; experiment: two-hybrid library CCmax; details: mean of both orientations
T25 chain: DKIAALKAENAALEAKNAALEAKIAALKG

[26] = target: T26, 4H3066-AA; experiment: two-hybrid library CCmax; details: mean of both orientations
T26 chain: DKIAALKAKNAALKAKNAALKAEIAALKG

[27] = target: T27, 4H3628-AA; experiment: two-hybrid library CCmax; details: mean of both orientations
T27 chain: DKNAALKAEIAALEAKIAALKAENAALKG

[28] = target: T28, 4H2283-AA; experiment: two-hybrid library CCmax; details: mean of both orientations
T28 chain: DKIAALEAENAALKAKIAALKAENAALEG

[29] = target: T29, 4H971-AA; experiment: two-hybrid library CCmax
T29 chain: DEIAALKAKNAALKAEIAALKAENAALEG

[30] = target: T30, 4H3920-AA; experiment: two-hybrid library CCmax; details: mean of both orientations
T30 chain: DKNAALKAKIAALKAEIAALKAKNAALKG

[31] = target: T31, 4H3029-AA; experiment: two-hybrid library CCmax; details: mean of both orientations
T31 chain: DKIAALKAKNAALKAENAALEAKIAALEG

[32] = target: T32, 4H497-AA; experiment: two-hybrid library CCmax; details: mean of both orientations
T32 chain: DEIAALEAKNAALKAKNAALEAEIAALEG

[33] = target: T33, 4H486-AA; experiment: two-hybrid library CCmax; details: mean of both orientations
T33 chain: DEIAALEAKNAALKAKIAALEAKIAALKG

[34] = target: T34, 4H_APH; experiment: two-hybrid library CCmax; details: mean of both orientations
T34 chain: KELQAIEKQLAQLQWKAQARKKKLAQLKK

[35] = target: T35, 4H3020-AA; experiment: two-hybrid library CCmax; details: mean of both orientations
T35 chain: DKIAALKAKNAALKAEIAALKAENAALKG

[36] = target: T36, 4H58-AA; experiment: two-hybrid library CCmax; details: mean of both orientations
T36 chain: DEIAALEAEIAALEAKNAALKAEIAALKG

[37] = target: T37, 4H355-AA; experiment: two-hybrid library CCmax; details: mean of both orientations
T37 chain: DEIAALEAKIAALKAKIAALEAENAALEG

[38] = target: T38, 4H3365-AA; experiment: two-hybrid library CCmax; details: mean of both orientations
T38 chain: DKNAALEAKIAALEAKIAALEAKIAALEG

[39] = target: T39, 4H3705-AA; experiment: two-hybrid library CCmax; details: mean of both orientations
T39 chain: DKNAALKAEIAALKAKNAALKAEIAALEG

[40] = target: T40, 4H2898-AA; experiment: two-hybrid library CCmax
T40 chain: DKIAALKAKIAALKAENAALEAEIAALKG

[41] = target: T41, 4H3782-AA; experiment: two-hybrid library CCmax; details: mean of both orientations
T41 chain: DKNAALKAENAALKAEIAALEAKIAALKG

[42] = target: T42, 4H895-AA; experiment: two-hybrid library CCmax; details: mean of both orientations
T42 chain: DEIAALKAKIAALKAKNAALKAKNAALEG

[43] = target: T43, 4H465-AA; experiment: two-hybrid library CCmax; details: mean of both orientations
T43 chain: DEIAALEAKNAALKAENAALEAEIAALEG

[44] = target: T44, 4H3651-AA; experiment: two-hybrid library CCmax; details: mean of both orientations
T44 chain: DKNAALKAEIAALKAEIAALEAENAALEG

[45] = target: 4H_GCN4; experiment: two-hybrid library CCmax; details: mean of both orientations
[46] = target: T45, 4H_BCR; experiment: two-hybrid library CCmax; details: mean of both orientations
T45 chain: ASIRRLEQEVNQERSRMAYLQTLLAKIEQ

[47] = target: T46, 4H535-AA; experiment: two-hybrid library CCmax; details: mean of both orientations
T46 chain: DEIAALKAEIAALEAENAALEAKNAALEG

[48] = target: GCN2_T; experiment: two-hybrid library CCmax
[49] = target: T47, 4H2839-bH; experiment: two-hybrid library CCNG1
T47 chain: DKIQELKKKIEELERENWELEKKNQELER

[50] = target: T48, 4H2915-bH; experiment: two-hybrid library CCNG1
T48 chain: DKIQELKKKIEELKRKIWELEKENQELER

[51] = target: T49, 4H348-bH; experiment: two-hybrid library CCNG1
T49 chain: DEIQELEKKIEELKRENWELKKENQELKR

[52] = target: T50, 4H2717-bH; experiment: two-hybrid library CCNG1
T50 chain: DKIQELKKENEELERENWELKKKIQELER

[53] = target: T51, 4H319-bH; experiment: two-hybrid library CCNG1
T51 chain: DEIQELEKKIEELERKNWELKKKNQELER

[54] = target: T52, 4H2585-bH; experiment: two-hybrid library CCNG1
T52 chain: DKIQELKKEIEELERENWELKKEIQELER

[55] = target: T53, 4H477-bH; experiment: two-hybrid library CCNG1
T53 chain: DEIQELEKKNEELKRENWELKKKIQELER

[56] = target: T54, 4H40-bH; experiment: two-hybrid library CCNG1
T54 chain: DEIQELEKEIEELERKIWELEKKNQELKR

[57] = target: T55, 4H2588-bH; experiment: two-hybrid library CCNG1
T55 chain: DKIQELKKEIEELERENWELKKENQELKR

[58] = target: T56, 4H2692-bH; experiment: two-hybrid library CCNG1
T56 chain: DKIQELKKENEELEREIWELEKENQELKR

[59] = target: T57, 4H741-bH; experiment: two-hybrid library CCNG1
T57 chain: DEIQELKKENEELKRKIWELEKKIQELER

[60] = target: T58, 4H492-bH; experiment: two-hybrid library CCNG1
T58 chain: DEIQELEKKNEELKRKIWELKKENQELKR

[61] = target: T59, 4H3277-bH; experiment: two-hybrid library CCNG1
T59 chain: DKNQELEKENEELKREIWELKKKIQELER

[62] = target: T60, 4H3057-bH; experiment: two-hybrid library CCNG1
T60 chain: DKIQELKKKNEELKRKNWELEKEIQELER

Sequence of 4H_GCN4 (chain, as listed by the source): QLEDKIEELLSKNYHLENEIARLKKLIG

interaction score [1]: -0.494
interaction score [2]: -0.264
interaction score [3]: -0.616
interaction score [4]: 0.418
Binder: DKNKQLKQEIQRLEQENQRLEWKIQKLKQ [P6A-bP]

interaction score [5]: 2.27
interaction score [6]: -1.2
interaction score [7]: -0.354
interaction score [8]: -1.18
interaction score [9]: -1.45
interaction score [10]: 1.42
interaction score [11]: -0.837
interaction score [12]: 1.51
interaction score [13]: -1.47
interaction score [14]: 2.32
interaction score [15]: -1.16
interaction score [16]: -0.235
interaction score [17]: -0.294
interaction score [18]: -1.94
interaction score [19]: -1.1
interaction score [20]: -0.349
interaction score [21]: 0.898
interaction score [22]: -1.74
interaction score [23]: -1.63
interaction score [24]: -0.579
interaction score [25]: -1.29
interaction score [26]: 0.194
interaction score [27]: -1.29
interaction score [28]: 1.16
interaction score ([29]; mean of both orientations): 0.362
interaction score [30]: -0.86
interaction score [31]: -2.28
interaction score [32]: -1.51
Binder: DENAALKAKIAALEAENAALEAEIAALEG [4H1809-AA]

interaction score [5]: -1.45
interaction score [6]: -0.984
interaction score [7]: -0.199
interaction score [8]: -1.69
interaction score [9]: -1.52
interaction score [10]: -0.572
interaction score [11]: -1.8
interaction score [12]: -0.0632
interaction score [13]: -1.68
interaction score [14]: 1.2
interaction score [15]: -1.48
interaction score [16]: -0.675
interaction score [17]: -1.75
interaction score [18]: -1.28
interaction score [19]: -1.76
interaction score ([20]; mean of both orientations): -1.69
interaction score [21]: 1.98
interaction score [22]: -2.03
interaction score [23]: 0.457
interaction score [24]: -0.477
interaction score [25]: 0.586
interaction score [26]: 1.92
interaction score [27]: -1.8
interaction score [28]: -1.02
interaction score [29]: 0.134
interaction score [30]: 0.785
interaction score [31]: 2.06
interaction score [32]: 0.786
Binder: DEIAALEAENAALEAENAALEAEIAALKG [4H146-AA]

interaction score [33]: 1.49
interaction score [34]: -1.54
interaction score [35]: -0.301
interaction score [36]: 2.06
interaction score [37]: 0.0321
interaction score [38]: -1.78
interaction score [39]: 1.04
interaction score [40]: 0.588
interaction score [41]: -1.39
interaction score [42]: -0.62
interaction score [43]: -1.49
interaction score [44]: -0.71
interaction score [45]: -0.672
interaction score [46]: 0.271
interaction score [47]: 0.142
interaction score [48]: -0.0478
Binder: DKIAALKAKIAALKAENAALEAEIAALKG [4H2898-AA]

interaction score [49]: 0.527
interaction score [50]: 0.0935
interaction score [51]: -0.941
interaction score [52]: -0.106
interaction score [53]: -0.903
interaction score [54]: -1.1
interaction score [55]: -0.993
interaction score [56]: -2.05
interaction score [57]: -0.858
interaction score [58]: 0.839
interaction score [59]: 0.303
interaction score [60]: -0.241
interaction score [61]: -0.644
interaction score [62]: 0.435
Binder: DKIQELEKKNEELKREIWELEKKNQELER [4H2503-bH]
